Measurements published in patent publication US20240390512A1 (Daiichi Sankyo, published 2024).
Blank lines part the entries; values can stand above or below the binder they belong to.

Experiments:
mouse CDH6, on cells = target: T1, mouse CDH6, on cells (mouse, UniProt P97326 54-790); test: flow cytometry; 293α cells transfected with mCDH6; PE anti-human IgG Fc(gamma) goat F(ab')
T1 construct: also called mCDH6; NP_031692
T1 sequence: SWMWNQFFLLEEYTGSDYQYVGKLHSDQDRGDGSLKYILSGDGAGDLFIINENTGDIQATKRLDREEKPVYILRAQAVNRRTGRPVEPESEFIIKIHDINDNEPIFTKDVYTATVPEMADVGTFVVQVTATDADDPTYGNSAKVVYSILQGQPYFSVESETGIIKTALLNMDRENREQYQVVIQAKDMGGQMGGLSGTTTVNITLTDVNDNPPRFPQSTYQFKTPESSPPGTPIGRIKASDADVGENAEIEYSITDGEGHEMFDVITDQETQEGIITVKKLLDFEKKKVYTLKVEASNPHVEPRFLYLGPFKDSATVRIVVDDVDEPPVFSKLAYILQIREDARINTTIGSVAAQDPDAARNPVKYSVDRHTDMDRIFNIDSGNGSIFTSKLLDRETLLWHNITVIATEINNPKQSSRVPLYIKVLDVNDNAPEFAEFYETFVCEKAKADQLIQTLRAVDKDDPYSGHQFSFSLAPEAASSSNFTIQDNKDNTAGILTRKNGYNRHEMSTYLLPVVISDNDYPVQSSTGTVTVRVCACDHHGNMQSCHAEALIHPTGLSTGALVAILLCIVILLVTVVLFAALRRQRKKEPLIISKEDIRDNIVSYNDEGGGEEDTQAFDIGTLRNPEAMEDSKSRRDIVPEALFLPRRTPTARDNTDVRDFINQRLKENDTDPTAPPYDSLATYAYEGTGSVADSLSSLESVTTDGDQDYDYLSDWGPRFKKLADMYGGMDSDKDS

rat CDH6, on cells = target: T2, rat CDH6, on cells (rat, UniProt P55280 54-789); test: flow cytometry; 293α cells transfected with rCDH6; PE anti-human IgG Fc(gamma) goat F(ab')
T2 construct: also called rCDH6; NP_037059
T2 sequence: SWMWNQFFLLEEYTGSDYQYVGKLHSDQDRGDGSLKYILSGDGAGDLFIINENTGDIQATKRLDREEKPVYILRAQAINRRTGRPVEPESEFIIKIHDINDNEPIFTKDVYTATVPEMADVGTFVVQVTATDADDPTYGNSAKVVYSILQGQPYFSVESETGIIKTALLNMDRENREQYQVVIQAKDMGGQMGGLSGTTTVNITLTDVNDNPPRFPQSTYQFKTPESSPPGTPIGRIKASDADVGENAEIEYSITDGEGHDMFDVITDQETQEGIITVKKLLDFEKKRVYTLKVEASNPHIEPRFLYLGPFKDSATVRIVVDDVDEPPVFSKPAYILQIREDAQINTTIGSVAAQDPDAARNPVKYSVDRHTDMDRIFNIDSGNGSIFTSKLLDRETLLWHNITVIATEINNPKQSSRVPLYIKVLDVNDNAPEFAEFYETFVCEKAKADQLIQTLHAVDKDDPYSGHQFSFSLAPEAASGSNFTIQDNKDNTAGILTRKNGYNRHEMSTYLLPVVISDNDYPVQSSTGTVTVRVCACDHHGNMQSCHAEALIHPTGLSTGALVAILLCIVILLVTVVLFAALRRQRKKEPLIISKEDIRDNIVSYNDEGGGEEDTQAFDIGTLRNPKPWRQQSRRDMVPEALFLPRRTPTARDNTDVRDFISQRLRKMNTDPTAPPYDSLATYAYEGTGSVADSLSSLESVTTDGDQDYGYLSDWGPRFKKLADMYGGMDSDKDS

[1] = target: T3, Recombinant Human CDH6 Fc His chimera (R&D Systems, Inc.) (human, UniProt P55285 54-615); test: SPR (Biacore T200); antigen captured by immobilized anti-His antibody, antibody as analyte 0.391 to 100 nM; steady state affinity model
T3 construct: Bought reagent; also called the antigen; human CDH6 antigen; Fc part of the bought chimera not given; His tag of the bought chimera
T3 sequence: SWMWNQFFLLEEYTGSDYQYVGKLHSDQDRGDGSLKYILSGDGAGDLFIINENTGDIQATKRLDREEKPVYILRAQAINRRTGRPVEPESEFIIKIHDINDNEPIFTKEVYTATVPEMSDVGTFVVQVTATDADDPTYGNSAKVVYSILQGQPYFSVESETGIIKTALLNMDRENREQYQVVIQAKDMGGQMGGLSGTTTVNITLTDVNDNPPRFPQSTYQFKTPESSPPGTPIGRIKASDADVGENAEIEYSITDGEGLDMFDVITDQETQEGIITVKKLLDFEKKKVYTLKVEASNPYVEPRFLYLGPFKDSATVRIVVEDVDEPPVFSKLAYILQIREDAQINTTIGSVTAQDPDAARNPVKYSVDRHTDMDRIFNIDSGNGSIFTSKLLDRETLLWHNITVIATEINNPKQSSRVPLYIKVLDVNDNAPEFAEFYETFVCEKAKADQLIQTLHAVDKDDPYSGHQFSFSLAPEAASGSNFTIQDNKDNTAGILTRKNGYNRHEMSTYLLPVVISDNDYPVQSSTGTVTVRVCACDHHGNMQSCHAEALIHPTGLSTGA

[2] = target: T4, EC3 deletion mutant of human CDH6, on cells (human, UniProt P55285 54-790); test: flow cytometry; 293α cells transfected with EC3-deleted hCDH6 (open line) against untransfected 293α cells (shaded); APC anti-human IgG goat F(ab')2; antibody concentration not given
T4 construct: in p3×FLAG-CMV-9; also called EC3-deleted hCDH6
T4 sequence: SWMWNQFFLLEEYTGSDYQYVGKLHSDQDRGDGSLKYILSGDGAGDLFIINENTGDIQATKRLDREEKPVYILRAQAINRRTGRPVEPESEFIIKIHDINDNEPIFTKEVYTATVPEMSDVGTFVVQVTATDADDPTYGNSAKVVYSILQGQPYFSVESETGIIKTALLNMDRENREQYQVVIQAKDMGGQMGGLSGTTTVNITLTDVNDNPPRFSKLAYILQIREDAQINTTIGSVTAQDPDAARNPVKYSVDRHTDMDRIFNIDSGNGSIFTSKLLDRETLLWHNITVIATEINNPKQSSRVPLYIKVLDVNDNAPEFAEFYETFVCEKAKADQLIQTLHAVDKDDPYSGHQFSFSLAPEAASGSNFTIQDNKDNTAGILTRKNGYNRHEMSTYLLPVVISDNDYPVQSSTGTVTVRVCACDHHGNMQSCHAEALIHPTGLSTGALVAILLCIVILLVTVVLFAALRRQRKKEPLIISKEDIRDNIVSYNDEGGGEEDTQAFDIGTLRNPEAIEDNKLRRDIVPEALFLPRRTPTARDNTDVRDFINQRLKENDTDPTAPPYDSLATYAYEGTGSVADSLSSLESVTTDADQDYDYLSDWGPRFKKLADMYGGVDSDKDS

[3] = target: T5, human CDH6 (cadherin-6), full-length, on cells (human, UniProt P55285 54-790); test: flow cytometry; 293α cells transfected with full-length hCDH6 (open line) against untransfected 293α cells (shaded); APC anti-human IgG goat F(ab')2; antibody concentration not given
T5 construct: also called hCDH6; full-length hCDH6
T5 sequence: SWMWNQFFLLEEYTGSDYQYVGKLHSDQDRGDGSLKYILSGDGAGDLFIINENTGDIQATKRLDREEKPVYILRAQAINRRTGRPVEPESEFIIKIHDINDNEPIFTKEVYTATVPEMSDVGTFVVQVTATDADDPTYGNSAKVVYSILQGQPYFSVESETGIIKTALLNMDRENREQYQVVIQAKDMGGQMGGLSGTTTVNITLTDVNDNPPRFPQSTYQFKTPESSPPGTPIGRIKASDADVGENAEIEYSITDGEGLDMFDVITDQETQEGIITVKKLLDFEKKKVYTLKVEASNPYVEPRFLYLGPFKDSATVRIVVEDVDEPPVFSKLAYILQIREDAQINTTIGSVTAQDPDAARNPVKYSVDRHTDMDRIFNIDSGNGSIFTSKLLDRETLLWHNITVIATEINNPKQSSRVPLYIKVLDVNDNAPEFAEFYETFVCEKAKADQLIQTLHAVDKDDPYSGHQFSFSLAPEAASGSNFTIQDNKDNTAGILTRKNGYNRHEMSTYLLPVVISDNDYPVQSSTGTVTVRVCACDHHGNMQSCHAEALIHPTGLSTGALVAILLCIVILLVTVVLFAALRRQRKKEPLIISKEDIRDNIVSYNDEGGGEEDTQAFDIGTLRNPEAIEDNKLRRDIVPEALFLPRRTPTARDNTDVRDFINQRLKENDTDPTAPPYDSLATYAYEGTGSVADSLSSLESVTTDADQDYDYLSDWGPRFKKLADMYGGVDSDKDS

[4] = target: T6, EC5 deletion mutant of human CDH6, on cells (human, UniProt P55285 54-790); test: flow cytometry; 293α cells transfected with EC5-deleted hCDH6 (open line) against untransfected 293α cells (shaded); APC anti-human IgG goat F(ab')2; antibody concentration not given
T6 construct: in p3×FLAG-CMV-9; also called EC5-deleted hCDH6
T6 sequence: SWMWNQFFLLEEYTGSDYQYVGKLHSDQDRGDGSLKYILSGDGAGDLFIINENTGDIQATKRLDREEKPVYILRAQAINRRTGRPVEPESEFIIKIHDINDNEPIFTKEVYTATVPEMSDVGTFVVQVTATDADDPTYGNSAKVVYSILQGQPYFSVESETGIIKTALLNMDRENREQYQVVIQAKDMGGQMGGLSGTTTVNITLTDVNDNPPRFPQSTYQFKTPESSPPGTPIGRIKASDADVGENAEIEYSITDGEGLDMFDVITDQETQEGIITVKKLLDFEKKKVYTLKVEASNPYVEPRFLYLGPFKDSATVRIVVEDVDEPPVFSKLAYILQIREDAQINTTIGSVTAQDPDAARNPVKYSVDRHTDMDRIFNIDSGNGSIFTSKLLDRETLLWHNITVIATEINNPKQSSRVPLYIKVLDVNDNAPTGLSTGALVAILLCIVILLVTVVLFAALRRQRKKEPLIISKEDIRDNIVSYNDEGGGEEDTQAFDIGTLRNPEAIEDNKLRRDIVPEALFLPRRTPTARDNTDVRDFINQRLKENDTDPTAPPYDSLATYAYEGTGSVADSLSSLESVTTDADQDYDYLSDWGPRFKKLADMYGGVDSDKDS

Kd [1]: 1.1 nM
binding result [2]: no binding
B1: humanized anti-CDH6 antibody H04L02 (antibody, human IgG1, kappa, V domains shown)
VH: QVQLVQSGAEVKKPGASVKVSCKASGYTFTRNFMHWIRQAPGQGLEWMGWIYPGDGETEYAQKFQGRVTLTADRSTSTAYMELSSLRSEDTAVYYCARGVYGGFAGGYFDFWGQGTLVTVSS
VL: DIQMTQSPSSLSASVGDRVTITCKASQNIYKNLAWYQQKPGKAPKLLIYDANTLQTGVPSRFSGSGSGSDFTLTISSLQPEDFATYFCQQYYSGWAFGQGTKVEIKR
notes: hH04 heavy chain and hL02 light chain, human IgG1 / kappa; also called H04L02 antibody
binding result (mouse CDH6, on cells): no binding (tested: about 4, unit not printed on the axis)
binding result (rat CDH6, on cells): no binding (tested: about 4, unit not printed on the axis)

binding result [3]: binds
binding result [4]: no binding
B2: anti-CDH6 antibody NOV0712 (antibody, human IgG1, kappa, V domains shown)
VH: QVQLLESGGGLVQPGGSLRLSCAASGFTFSSHGMHWVRQAPGKGLEWVSVISGSGSNTGYADSVKGRFTISRDNSKNTLYLQMNSLRAEDTAVYYCARQWGSYAFDSWGQGTLVTVSS
VL: DIQMTQSPSSLSASVGDRVTITCRASQSISSYLNWYQQKPGKAPKLLIYAVSTLQSGVPSRFSGSGSGTDFTLTISSLQPEDFATYYCQQSGTFPPTTFGQGTKVEIKR
notes: Made after WO 2016/024195; also called NOV0712 antibody
